Source: patent publication US10351623B2, “Antagonists of IL-17 isoforms and their uses” (Orega Biotech, priority 2012, dated 2019)

How the values were obtained:
[1] = tested on: normal human dermal fibroblasts (NHDF); assay: IL-6 ELISA; assay type: cell-based; conditions: 30 ng/ml recombinant cytokine, 24 h culture, ELISA of supernatant
Procedure: FIG. 12: IL-17B, IL-17C, IL-17D, IL-17E and IL-17F increase the production of pro-inflammatory IL-6 by normal human dermal fibroblasts (NHDF). NHDF were cultured for 24 h in complete adequate complete medium alone (medium) or in the presence of 30 ng/ml of recombinant human IL-17B, IL-17C, IL-17D, IL-17E or IL-17F as indicated. All isoforms increased the production of pro-inflammatory IL-6 by NHDF.
Normal human dermal fibroblasts (NHDF) were cultures in complete medium alone or supplemented with 30 ng/ml L of recombinant IL-17B, IL17C or IL17D as indicated. After […] of culture, supernatant are collected. IL-6 ELISA is performed with human IL-6 development kit (Peprotech) following manufacturer's instructions.

[2] = tested on: OAW42 ovarian cancer cells; assay: Cell proliferation assay ([3H]-TdR); assay type: cell-based, human; conditions: [3H]-TdR incorporation at 72 h, increasing doses of recombinant cytokine (0 to 100 ng/ml)
Procedure: (§1) FIGS. 10A-10F: IL-17C and IL-17D increase the proliferation of breast and ovarian cancer cells. OAW42 (ovarian, A), MCF7 (breast, B) and T47D (breast, C) cells were cultured in adequate complete medium supplemented with increasing doses of recombinant human IL-17C as indicated. Cell proliferation was assessed at 72 h using tritiated thymidine ([3H]-TdR) incorporation protocol. OAW42 (D), MCF7 (E) and T47D (F) cells were cultured in adequate complete medium supplemented with increasing doses of recombinant human IL-17D as indicated. Cell proliferation was assessed at 72 h using tritiated thymidine ([3H]-TdR) incorporation protocol.
HCT116, HT29, and SKOV3 cell lines were cultured in McCoy5a medium (Life technologies) supplemented with 10% FCS, 2% glutamine and 1% antibiotics (Life technologies). MCF7, T47D, MDA-MB231 and BT20 cell lines were cultured in RPMI 1640 medium supplemented as described above. SKMEL5, LOVO, OAW42, MDA-MB435S, MDA-MB436, MDA-MB468 cell lines and normal human dermal fibroblasts (NHDF) were grown in DMEM/F12 medium (Life Technologies) supplemented as described above. […]
(§2) 400 cells are seeded per well in 96 well plate (Corning) and kept overnight in adequate complete medium. […] [3H]-TdR uptake was measured using PerkinElmer microβ2 2450 microplate counter.

MCF7 breast cancer cells [3] = assay: Cell proliferation assay ([3H]-TdR); assay type: cell-based, human; conditions: [3H]-TdR incorporation at 72 h, increasing doses of recombinant cytokine (0 to 100 ng/ml)
Procedure: (§3) FIGS. 7A-7D: IL-17B increases the proliferation of breast cancer cells. T47D (A), MCF7 (B), MDA-MB436 (C) and MDA-MB468 (D) cells were cultured in adequate complete medium supplemented with increasing doses of recombinant human IL-17B as indicated. Cell proliferation was assessed at 72 h using tritiated thymidine ([3H]-TdR) incorporation protocol.
as §1
(§4) HCT116, HT29, and SKOV3 cell lines were cultured in McCoy5a medium (Life technologies) supplemented with 10% FCS, 2% glutamine and 1% antibiotics (Life technologies). MCF7, T47D, MDA-MB231 and BT20 cell lines were cultured in RPMI 1640 medium supplemented as described above. SKMEL5, LOVO, OAW42, MDA-MB435S, MDA-MB436, MDA-MB468 cell lines and normal human dermal fibroblasts (NHDF) were grown in DMEM/F12 medium (Life Technologies) supplemented as described above. MCF10A cell line was maintained in DMEM/F12 medium (Life Technologies) supplemented as described above and with 10 μg/ml insulin, 0.5 μg/ml hydrocortisone, 20 ng/ml EGF and 100 ng/ml cholera toxin. MDA-MB157 cell line was cultured in DMEM medium (Life technologies) supplemented with 10% FCS, 2% glutamine and 1% antibiotics. All cells were kept at 37° C. in 5% CO2 atmosphere incubator.
(§5) 400 cells are seeded per well in 96 well plate (Corning) and kept overnight in adequate complete medium. Medium is then removed and replaced with adequate complete medium supplemented with 0 to 100 ng/ml of cytokines as indicated. Each condition is performed in triplicate. After 72 h of culture, cells were pulsed for 16 h with tritiated thymidine ([3H]-TdR) (0.5 μCi) and harvested. [3H]-TdR uptake was measured using PerkinElmer microβ2 2450 microplate counter.

[4] = tested on: MDA-MB231 breast cancer cells; assay: Matrigel invasion assay; assay type: cell-based, human; conditions: cultured 2 days with 100 ng/ml, Matrigel Invasion Chambers, 22 hours
Procedure: FIGS. 11A-11B: IL-17C and IL-17D increase invasion of MDA-MB231 breast cancer cells. MDA-MB231 were cultured for 2 days in complete adequate medium alone (medium) or supplemented with 100 ng/ml of recombinant human IL-17B, IL-17C or IL-17D as indicated. Cell invasiveness was then evaluated in Matrigel Invasion Chambers (A, representative photomicrographs, B, quantification).
(§6) Cells were cultured in adequate complete medium supplemented with 100 ng/ml of recombinant cytokines for 2 days (MDA-MB231) or 14 days (OAW42). Matrigel Invasion Chambers (BD BioCoat™ BD Matrigel™ Invasion Chamber, 24-well Cell culture inserts) were then used to study the invasiveness of cancer cells. 2.10^4 cells are then added to the upper compartment of the chambers in 1% FCS adequate medium alone or supplemented with 100 ng/ml of recombinant cytokines as indicated. Medium supplemented with 10% FCS is added to the lower wells of the chambers. Plates are incubated for 22 hours at 37° C. Transwell filters are then fixed and stained in Giemsa solution following which non-invading cells are removed from the upper surface of the transwell membrane using a cotton swab. Images of cells from three representative fields are captured digitally and the number of cells present on the transwell is counted.

T47D breast cancer cells = assay: Cell proliferation assay ([3H]-TdR); assay type: cell-based, human; conditions: [3H]-TdR incorporation at 72 h, increasing doses of recombinant cytokine (0 to 100 ng/ml)
Procedure: as §3, §1, §4, §5

[5] = tested on: OAW42 ovarian cancer cells; assay: Matrigel invasion assay; assay type: cell-based, human; conditions: cultured 14 days with 100 ng/ml, Matrigel Invasion Chambers, 22 hours
Procedure: (§7) FIGS. 8A-8C: IL-17B increases migration and invasion of breast and ovarian cancer cells. OAW42 (ovarian, A) and MCF7 (breast, B) cells were cultured in complete adequate complete medium alone (Ctl) or supplemented with 100 ng/ml of recombinant human IL-17B (IL-17B) as indicated. Cell migration was evaluated in transwell migration assay. (C) OAW42 cells were cultured for 14 days in adequate complete medium alone (Ctl) or supplemented with 100 ng/ml of recombinant human IL-17B (IL-17B) as indicated. Cell invasiveness was then evaluated in Matrigel Invasion Chambers.
as §6, with “Transwell filters are then fixed and stained in Giemsa solution following which non-invading cells are removed from the upper surface of the transwell membrane using a cotton swab.” left out

MCF7 breast cancer cells [6] = assay: Transwell migration assay; assay type: cell-based, human; conditions: 100 ng/ml, 22 hours
Procedure: as §7
(§8) Migration Assay 20,000 cells were seeded on the upper chamber of trans well chambers in 1% FCS adequate medium alone (medium) or supplemented with recombinant human IL-17B (100 ng/ml) for 22 hours at 37° C. as indicated. The cells on the transwell were stained with 0.5% crystal violet prior imaging and enumeration. The number of cells migrated onto the transwell were counted (magnification ×4). The graph presents data after quantification in % of cell migration compared to non-treated cells. Results are the mean+/−SEM of two independent experiments, each performed in triplicate.

[7] = tested on: OAW42 ovarian cancer cells; assay: Transwell migration assay; assay type: cell-based, human; conditions: 100 ng/ml, 22 hours
Procedure: as §7, §8

MDA-MB231 cells = assay: Cell proliferation assay ([3H]-TdR); assay type: cell-based, human; conditions: MDA-MB231 cells that do not express IL-17RB; data not shown
Procedure: as §4, §5

[8] = tested on: breast cancer cell lines that express IL-17RB; assay: Cytotoxicity assay, docetaxel-induced cell death; assay type: cell-based; conditions: MCF7, T47D, MDA-MB436, BT20, MDA-MB468; cytokine 1 or 10 ng/ml; docetaxel 5, 10, 20 or 40 μg/ml for 7 h
Procedure: (§9) FIGS. 9A-9F: IL-17B inhibits docetaxel and doxorubicin-induced cell death. MCF7 (A), T47D (B), MDA-MB436 (C), BT20 (D) and MDA-MB468 (E) breast cells were cultured for 48 h in adequate complete medium alone (medium) or treated with recombinant human IL-17B at 1 or 10 ng/ml as indicated. Cells were then culture in Fetal Calf Serum (FCS) free medium supplemented with corresponding concentration of cytokine for 24 h and then further supplemented with docetaxel at 5, 10, 20 or 40 μg/ml as indicated for 7 h. The percentage of cell death (=cytotoxicity) was determined using the Cytotoxicity Detection Kit (Roche). (F) MCF7 cells were cultured for 48 h in adequate complete medium alone (medium) or treated with recombinant human IL-17B at 1 or 10 ng/ml as indicated. […] The percentage of cell death (=cytotoxicity) was determined using the Cytotoxicity Detection Kit (Roche). […]
(§10) The percentage of cell death (=cytotoxicity) was determined after 7 h of culture in the presence of docetaxel or doxorubicin using the Cytotoxicity Detection Kit (Roche) according to the manufacturer's instructions. […] Optical density was then read at 490 nm. The percentage of cytotoxicity is calculated as followed: %=100×(exp value−control medium value)/(Triton X100 treated cells value−control medium value)

MCF7 breast cancer cells [9] = assay: Cytotoxicity assay, doxorubicin-induced cell death; assay type: cell-based; conditions: cytokine 1 or 10 ng/ml, doxorubicin 20 or 30 μM for 7 h
Procedure: as §9, §10

[10] = tested on: MDA-MB436 breast cancer cells; assay: Cell proliferation assay ([3H]-TdR); assay type: cell-based, human; conditions: [3H]-TdR incorporation at 72 h, increasing doses of recombinant cytokine (0 to 100 ng/ml)
Procedure: as §3, §4, §2

[11] = tested on: MDA-MB468 breast cancer cells; assay: Cell proliferation assay ([3H]-TdR); assay type: cell-based, human; conditions: [3H]-TdR incorporation at 72 h, increasing doses of recombinant cytokine (0 to 100 ng/ml)
Procedure: as §3, §4, §2

Molecule | production of pro-inflammatory IL-6 [1] | cell proliferation [2] | cell proliferation (MCF7 breast cancer cells [3]) | cell invasiveness [4] | cell proliferation (T47D breast cancer cells) | cell invasiveness [5] | cell migration (MCF7 breast cancer cells [6]) | cell migration [7] | cell proliferation (MDA-MB231 cells) | docetaxel-induced cell death (cytotoxicity) [8] | doxorubicin-induced cell death (cytotoxicity) (MCF7 breast cancer cells [9]) | cell proliferation [10] | cell proliferation [11]
IL-17D: recombinant human IL-17D, interleukin 17 isoform, receptor unknown (protein, UniProt Q8TAD2 16-202, looked up) Interleukin-17D: AGAPRAGRRPARPRGCADRPEELLEQLYGRLAAGVLSAFHHTLQLGPREQARNASCPAGGRPADRRFRPPTNLRSVSPWAYRISYDPARYPRYLPEAYCLCRGCLTGLFGEEDVRFRSAPVYMPTVVLRRTPACAGGRSVYTEAYVTIPVGCTCVPEPEKDADSINSSIDKQGAKLLLGPNDAPAGP | increase | increased | increased | increased | – | – | – | – | – | – | – | – | –
IL-17C: recombinant human IL-17C, interleukin 17 isoform that binds IL-17RE (protein) HHDPSLRGHPHSHGTPHCYSAEELPLGQAPPHLLARGAKWGQALPVALVSSLEAASHRGRHERPSATTQCPVLRPEEVLEADTHQRSISPWRYRVDTDEDRYPQKLAFAECLCRGCIDARTGRETAALNSVRLLQSLLVLRRRPCSRDGSGLPTPGAFAFHTEFIHVPVGCTCVLPRSV | increase | increased | increased | increased | increased | – | – | – | – | – | – | – | –
IL-17E: recombinant human IL-17E (=IL-25), interleukin 17 isoform (protein, UniProt Q9H293 33-177, looked up) Interleukin-25: YSHWPSCCPSKGQDTSEELLRWSTVPVPPLEPARPNRHPESCRASEDGPLNSRAISPWRYELDRDLNRLPQDLYHARCLCPHCVSLQTGSHMDPRGNSELLYHNQTVFYRRPCHGEKGTHKGYCLERRLYRVSLACVCVRPRVMG | increase | – | – | – | – | – | – | – | – | – | – | – | –
IL-17B: recombinant human IL-17B, interleukin 17 isoform that binds IL-17RB (protein) QPRSPKSKRKGQGRPGPLAPGPHQVPLDLVSRMKPYARMEEYERNIEEMVAQLRNSSELAQRKCEVNLQLWMSNKRSLSPWGYSINHDPSRIPVDLPEARCLCLGCVNPFTMQEDRSMVSVPVFSQVPVRRRLCPPPPRTGPCRQRAVMETIAVGCTCIF | increase | – | increased | did not increase | increased | increased | increased | increased | did not stimulate | decreased | protected | increased | increased
IL-17F: recombinant human IL-17F, interleukin 17 isoform (protein, UniProt Q96PD4 31-163, looked up) Interleukin-17F: RKIPKVGHTFFQKPESCPPVPGGSMKLDIGIINENQRVSMSRNIESRSTSPWNYTVTWDPNRYPSEVVQAQCRNLGCINAQGKEDISMNSVPIQQETLVVRRKHQGCSVSFQLEKVLVTVGCTCVTPVIHHVQ | increase | – | – | – | – | – | – | – | – | – | – | – | –
